{
  "source": "paper PMC9427776",
  "about": "“TTYH family members form tetrameric complexes at the cell membrane” (Communications Biology, 2022)",
  "key": {"[1]": {"target": "mTTYH3 ECD1-T4L-ECD2 (mouse | not stated) (UniProt Q6P5F7)", "assay": "cross-linking; secreted protein from clarified insect cell medium, DSS at 0, 10, 50, 100, 200, 2000 uM; western blot"}, "[2]": {"target": "the molecule itself", "assay": "single-molecule subunit counting (photobleaching steps of EGFP, TIRFM); EGFP fusions at low density in the plasma membrane of living Xenopus laevis oocytes, room temperature; bleaching steps counted by hand, fit to a binomial distribution (p = 0.7)"}, "[3]": {"target": "the molecule itself", "assay": "SEC; FSEC of HEK 293 cells solubilised in 1% DDM, Superdex 200 Increase, 150 mM NaCl, 50 mM Tris-HCl pH 7.5, 1 mM DDM; EGFP fluorescence; also after 10 min at 20-80 C (FSEC-TS) or with 20 mM 2-ME, both of which shift the population toward dimers"}, "[4]": {"target": "the molecule itself", "assay": "native gel or EMSA; Blue-Native PAGE of HEK 293 lysates in 0.05% (mTTYH1) or 0.1% (mTTYH3) DDM, 50 mM NaCl, 20 mM Tris-HCl pH 7.5; anti-FLAG western blot"}, "[5]": {"target": "the molecule itself", "assay": "cross-linking; in situ on adherent HEK 293 cells with membrane-impermeable BS3 (0, 10, 50, 100, 200, 2000 uM), 1 h at room temperature; lysis in 1% DDM; SDS-PAGE and anti-FLAG western blot"}, "[6]": {"target": "the molecule itself", "assay": "SEC-MALS; purified mTTYH1-GFP-8xHis, 50 uL at 1.18 mg/mL, Superdex 200 Increase, 20 mM Tris pH 7.5, 150 mM NaCl, 0.3 mM DDM; protein conjugate analysis"}},
  "note": "Where “and” joins values, the source holds several entries; their conditions need not be identical. Equal values may be shown once.",
  "data": [
    {"molecule": "mTTYH3 ECD1-T4L-ECD2 (from UniProt Q6P5F7 107-209; Q6P5F7 260-386) (domain or fragment)", "values": [
      {"measurement": "stoichiometry N", "setting": "[1]", "result": 4}
    ]},
    {"molecule": "EGFP fusion of KCNH1 (natural protein, UniProt O95259 1-989, looked up, KCNH1, voltage-gated K+ channel; Positive control of the subunit counting; also called EGFP-fused KCNH1; source: Xenopus laevis oocytes injected with 1 ng cRNA, at the plasma membrane) MTMAGGRRGLVAPQNTFLENIVRRSNDTNFVLGNAQIVDWPIVYSNDGFCKLSGYHRAEVMQKSSTCSFMYGELTDKDTIEKVRQTFENYEMNSFEILMYKKNRTPVWFFVKIAPIRNEQDKVVLFLCTFSDITAFKQPIEDDSCKGWGKFARLTRALTSSRGVLQQLAPSVQKGENVHKHSRLAEVLQLGSDILPQYKQEAPKTPPHIILHYCVFKTTWDWIILILTFYTAILVPYNVSFKTRQNNVAWLVVDSIVDVIFLVDIVLNFHTTFVGPAGEVISDPKLIRMNYLKTWFVIDLLSCLPYDVINAFENVDEVSAFMGDPGKIGFADQIPPPLEGRESQGISSLFSSLKVVRLLRLGRVARKLDHYIEYGAAVLVLLVCVFGLAAHWMACIWYSIGDYEIFDEDTKTIRNNSWLYQLAMDIGTPYQFNGSGSGKWEGGPSKNSVYISSLYFTMTSLTSVGFGNIAPSTDIEKIFAVAIMMIGSLLYATIFGNVTTIFQQMYANTNRYHEMLNSVRDFLKLYQVPKGLSERVMDYIVSTWSMSRGIDTEKVLQICPKDMRADICVHLNRKVFKEHPAFRLASDGCLRALAMEFQTVHCAPGDLIYHAGESVDSLCFVVSGSLEVIQDDEVVAILGKGDVFGDVFWKEATLAQSCANVRALTYCDLHVIKRDALQKVLEFYTAFSHSFSRNLILTYNLRKRIVFRKISDVKREEEERMKRKNEAPLILPPDHPVRRLFQRFRQQKEARLAAERGGRDLDDLDVEKGNVLTEHASANHSLVKASVVTVRESPATPVSFQAASTSGVPDHAKLQAPGSECLGPKGGGGDCAKRKSWARFKDACGKSEDWNKVSKAESMETLPERTKASGEATLKKTDSCDSGITKSDLRLDNVGEARSPQDRSPILAEVKHSFYPIPEQTLQATVLEVRHELKEDIKALNAKMTNIEKQLSEILRILTSRRSSQSPQELFEISRPQSPESERDIFGAS", "values": [
      {"measurement": "stoichiometry N", "setting": "[2]", "result": 4}
    ]},
    {"molecule": "mTTYH3-EGFP (HEK 293, pEGFP-N1) (natural protein, mouse, UniProt Q6P5F7 1-524, looked up, mouse Tweety homolog 3 (mTTYH3), intact protein; also called EGFP-fused mTTYH3; mTTYH3-GFP; source: HEK 293 cells, transiently transfected, detergent-solubilised lysate; not shown: EGFP, C-terminal, kept) MAGVSYAAPWWVSLLHRLPHFDLRWEATSSQFRPEDADYQQALLLLGATALACLALDLLFLLFYSFWLCCRRRKTDEHLDADCCCTAWCVIITTLVCSAGIAVGFYGNGETSDGIHRATYSLRHANRTVAGVQDRVWDTAAALNRTAEPNLQSLERQLAGRQEPLRAVQRLQTLLGTLLGYTAAIPFWRNPGVSLEVLAEQVDLYDWYRWLGYLGLLLLDVIICLLVLVGLIRSSKGILVGVCLLGVLALVISWGALGLELAVSVGSSDFCVDPDTFVTKMVEEHSVLSGDILQYYLACSPRATNPFQQKLSGSHKALVEMQDVVAELLRNVPREHPATKDPLLRVQEVLNGTEVNLQHLTALVDCRSLHLDYVQALTGFCYDGVEGLIYLALFSFVTALMFSSIVCSIPHTWQQKRGPDDDGEEETAPGPRQAHDSLYRVHMPSLYSCGSSYGSEASIPAAAHTVSNAPVTEYMSQNANFQNPRCENTPLIGRESPPPSYTSSMRAKYLATSQPRPDSSGSGH", "values": [
      {"measurement": "stoichiometry N", "setting": "[3]", "result": "4 and 2"}
    ]},
    {"molecule": "FLAG-tagged mTTYH3 (natural protein, mouse, UniProt Q6P5F7 1-524, looked up, mouse Tweety homolog 3 (mTTYH3), intact protein; so the FLAG is probably C-terminal; also called mouse Tweety homolog 3; source: HEK 293 cells (HEK293T), transiently transfected; cross-linked on the cells or in DDM lysate) MAGVSYAAPWWVSLLHRLPHFDLRWEATSSQFRPEDADYQQALLLLGATALACLALDLLFLLFYSFWLCCRRRKTDEHLDADCCCTAWCVIITTLVCSAGIAVGFYGNGETSDGIHRATYSLRHANRTVAGVQDRVWDTAAALNRTAEPNLQSLERQLAGRQEPLRAVQRLQTLLGTLLGYTAAIPFWRNPGVSLEVLAEQVDLYDWYRWLGYLGLLLLDVIICLLVLVGLIRSSKGILVGVCLLGVLALVISWGALGLELAVSVGSSDFCVDPDTFVTKMVEEHSVLSGDILQYYLACSPRATNPFQQKLSGSHKALVEMQDVVAELLRNVPREHPATKDPLLRVQEVLNGTEVNLQHLTALVDCRSLHLDYVQALTGFCYDGVEGLIYLALFSFVTALMFSSIVCSIPHTWQQKRGPDDDGEEETAPGPRQAHDSLYRVHMPSLYSCGSSYGSEASIPAAAHTVSNAPVTEYMSQNANFQNPRCENTPLIGRESPPPSYTSSMRAKYLATSQPRPDSSGSGH", "values": [
      {"measurement": "stoichiometry N", "setting": "[4]", "result": 2},
      {"measurement": "stoichiometry N", "setting": "[5]", "result": 4}
    ]},
    {"molecule": "mTTYH3-EGFP (Xenopus oocytes, pGH19) (natural protein, mouse, UniProt Q6P5F7 1-524, looked up, mouse Tweety homolog 3 (mTTYH3), intact protein; also called EGFP-fused mTTYH3; source: Xenopus laevis oocytes injected with about 1 ng cRNA, at the plasma membrane; not shown: EGFP, C-terminal, kept) MAGVSYAAPWWVSLLHRLPHFDLRWEATSSQFRPEDADYQQALLLLGATALACLALDLLFLLFYSFWLCCRRRKTDEHLDADCCCTAWCVIITTLVCSAGIAVGFYGNGETSDGIHRATYSLRHANRTVAGVQDRVWDTAAALNRTAEPNLQSLERQLAGRQEPLRAVQRLQTLLGTLLGYTAAIPFWRNPGVSLEVLAEQVDLYDWYRWLGYLGLLLLDVIICLLVLVGLIRSSKGILVGVCLLGVLALVISWGALGLELAVSVGSSDFCVDPDTFVTKMVEEHSVLSGDILQYYLACSPRATNPFQQKLSGSHKALVEMQDVVAELLRNVPREHPATKDPLLRVQEVLNGTEVNLQHLTALVDCRSLHLDYVQALTGFCYDGVEGLIYLALFSFVTALMFSSIVCSIPHTWQQKRGPDDDGEEETAPGPRQAHDSLYRVHMPSLYSCGSSYGSEASIPAAAHTVSNAPVTEYMSQNANFQNPRCENTPLIGRESPPPSYTSSMRAKYLATSQPRPDSSGSGH", "values": [
      {"measurement": "stoichiometry N", "setting": "[2]", "result": 4}
    ]},
    {"molecule": "FLAG-tagged mTTYH1 (natural protein, mouse, UniProt Q9D3A9 1-450, looked up, mouse Tweety homolog 1 (mTTYH1), intact protein; so the FLAG is probably C-terminal; also called mouse Tweety homolog 1; source: HEK 293 cells (HEK293T), transiently transfected; cross-linked on the cells or in DDM lysate) MGAPPGYRPSAWVHLLHQLPRADFQLRPVPSGFAPRDQEYQQALLLVAALAGLGLGLSLIFIAVYLIRFCCCRPPEPHGAKSPPPGGGCVTWSCIAALLVGCAGIGIGFYGNSETSDGVSQLSSALLHANHTLSTIDDVVLETVERLGEAVKTELTTLEEVLSVRMELVAATRGARRQAEAAAQYLQGLAFWQGVSLSPVQVAEDVTFVEEYRWLAYVLLLLLVLLVCLFTLLGLAKQSKWLVVVMTAMSLLVLVLSWGSMGLEAATAVGLSDFCSNPDTYVLNLTQEETGLSSDILSYYFLCNQAVSNPFQQRLTLSQRALASIHSQLQGLEREAIPQFSAAQKPLLSLEETLNVTERSFHQLVALLHCRSLHKDYGSALRGLCEDALEGLLFLMLFSLLSAGALATTLCSLPRAWALFPPSDDYDDTDDDDPFNPQESKRFVQWQSSI", "values": [
      {"measurement": "stoichiometry N", "setting": "[4]", "result": 2},
      {"measurement": "stoichiometry N", "setting": "[5]", "result": 4}
    ]},
    {"molecule": "mTTYH1-EGFP (Xenopus oocytes, pGH19) (natural protein, mouse, UniProt Q9D3A9 1-450, looked up, mouse Tweety homolog 1 (mTTYH1), intact protein; also called EGFP-fused mTTYH1; source: Xenopus laevis oocytes injected with about 1 ng cRNA, at the plasma membrane; not shown: EGFP, C-terminal, kept) MGAPPGYRPSAWVHLLHQLPRADFQLRPVPSGFAPRDQEYQQALLLVAALAGLGLGLSLIFIAVYLIRFCCCRPPEPHGAKSPPPGGGCVTWSCIAALLVGCAGIGIGFYGNSETSDGVSQLSSALLHANHTLSTIDDVVLETVERLGEAVKTELTTLEEVLSVRMELVAATRGARRQAEAAAQYLQGLAFWQGVSLSPVQVAEDVTFVEEYRWLAYVLLLLLVLLVCLFTLLGLAKQSKWLVVVMTAMSLLVLVLSWGSMGLEAATAVGLSDFCSNPDTYVLNLTQEETGLSSDILSYYFLCNQAVSNPFQQRLTLSQRALASIHSQLQGLEREAIPQFSAAQKPLLSLEETLNVTERSFHQLVALLHCRSLHKDYGSALRGLCEDALEGLLFLMLFSLLSAGALATTLCSLPRAWALFPPSDDYDDTDDDDPFNPQESKRFVQWQSSI", "values": [
      {"measurement": "stoichiometry N", "setting": "[2]", "result": 4}
    ]},
    {"molecule": "mTTYH1-GFP-8xHis (natural protein, mouse, UniProt Q9D3A9 1-450, looked up, N-glycosylated (HexNAc at Asn; sites not given), mouse Tweety homolog 1 (mTTYH1), intact protein; also called purified mTTYH1-GFP; intact mTTYH1-GFP; not shown: EGFP, C-terminal, kept; His8, C-terminal, kept) MGAPPGYRPSAWVHLLHQLPRADFQLRPVPSGFAPRDQEYQQALLLVAALAGLGLGLSLIFIAVYLIRFCCCRPPEPHGAKSPPPGGGCVTWSCIAALLVGCAGIGIGFYGNSETSDGVSQLSSALLHANHTLSTIDDVVLETVERLGEAVKTELTTLEEVLSVRMELVAATRGARRQAEAAAQYLQGLAFWQGVSLSPVQVAEDVTFVEEYRWLAYVLLLLLVLLVCLFTLLGLAKQSKWLVVVMTAMSLLVLVLSWGSMGLEAATAVGLSDFCSNPDTYVLNLTQEETGLSSDILSYYFLCNQAVSNPFQQRLTLSQRALASIHSQLQGLEREAIPQFSAAQKPLLSLEETLNVTERSFHQLVALLHCRSLHKDYGSALRGLCEDALEGLLFLMLFSLLSAGALATTLCSLPRAWALFPPSDDYDDTDDDDPFNPQESKRFVQWQSSI", "values": [
      {"measurement": "stoichiometry N", "setting": "[6]", "result": "4 and 2"}
    ]},
    {"molecule": "mTTYH1-EGFP (HEK 293, pEGFP-N1) (natural protein, mouse, UniProt Q9D3A9 1-450, looked up, mouse Tweety homolog 1 (mTTYH1), intact protein; also called EGFP-fused mTTYH1; source: HEK 293 cells, transiently transfected, detergent-solubilised lysate; not shown: EGFP, C-terminal, kept) MGAPPGYRPSAWVHLLHQLPRADFQLRPVPSGFAPRDQEYQQALLLVAALAGLGLGLSLIFIAVYLIRFCCCRPPEPHGAKSPPPGGGCVTWSCIAALLVGCAGIGIGFYGNSETSDGVSQLSSALLHANHTLSTIDDVVLETVERLGEAVKTELTTLEEVLSVRMELVAATRGARRQAEAAAQYLQGLAFWQGVSLSPVQVAEDVTFVEEYRWLAYVLLLLLVLLVCLFTLLGLAKQSKWLVVVMTAMSLLVLVLSWGSMGLEAATAVGLSDFCSNPDTYVLNLTQEETGLSSDILSYYFLCNQAVSNPFQQRLTLSQRALASIHSQLQGLEREAIPQFSAAQKPLLSLEETLNVTERSFHQLVALLHCRSLHKDYGSALRGLCEDALEGLLFLMLFSLLSAGALATTLCSLPRAWALFPPSDDYDDTDDDDPFNPQESKRFVQWQSSI", "values": [
      {"measurement": "stoichiometry N", "setting": "[3]", "result": "4 and 2"}
    ]}
  ]
}
